Data on seven molecules can be found in patent US20160272683A1 (Novo Nordisk, published 2016).

The test concerns the target T1, human calcitonin receptor (human, UniProt P30988 25-474).
T1 construct: whole, on cells; also called hCT-R; hCTR
T1 sequence (looked up): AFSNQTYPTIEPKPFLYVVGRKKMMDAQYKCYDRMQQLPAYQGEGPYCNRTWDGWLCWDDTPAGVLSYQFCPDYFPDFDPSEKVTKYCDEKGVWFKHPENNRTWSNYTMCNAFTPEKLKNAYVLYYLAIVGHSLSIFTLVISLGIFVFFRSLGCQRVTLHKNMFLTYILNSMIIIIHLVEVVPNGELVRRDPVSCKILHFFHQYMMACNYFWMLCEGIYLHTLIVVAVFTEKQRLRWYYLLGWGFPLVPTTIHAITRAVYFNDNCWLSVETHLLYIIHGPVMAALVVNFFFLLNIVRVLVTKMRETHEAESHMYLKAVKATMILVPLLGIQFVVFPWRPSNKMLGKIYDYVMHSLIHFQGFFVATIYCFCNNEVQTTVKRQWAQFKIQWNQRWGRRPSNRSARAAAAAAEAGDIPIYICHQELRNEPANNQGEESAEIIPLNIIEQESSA
Kind of test: whole-cell competition vs 125I-human calcitonin (Assay VIIa). On the procedure:
The binding assay was performed using a BHK tk'ts 13 cell line was stably transfected with the human calcitonin receptor, and a CRE-responsive luciferase reporter gene.
The day before the assay the cells were Seeded into Poly-D-Lysin coated 384W Opaque White, BD BioCoat plates (10000 cells/well) and Incubated overnight at 37° C., 5% CO2, 95% humidity. […] The morning after, the plates were washed three times in HBSS (4° C.), and lyzed in Lysis buffer (0.1 M NaOH), 1% SDS. Scintillation cocktail (MicroScint40®) was added and the plates were shaken at 500 rpm for a short period. The plate was incubated at room temperature in the dark for 1 hour and Read on a TopCounter™ (Packard). The IC₅₀ was calculated using (one site binding competition analysis) GraphPad Prism5 as a measure of receptor affinity.

* marks the point of attachment. C18 diacid = O=C(O)CCCCCCCCCCCCCCCCC(=O)*

By IC50 is commonly meant the concentration needed to halve the response being measured.

B1: [N-terminal(C18 diacid), 3P, 9V]mimylin (peptide)
peptide: {C18 diacid}-EAPELSTAVLGRLSAELHELATLPRTETGPESP-NH2
SMILES: CC(C)C[C@H](NC(=O)[C@H](CCC(=O)O)NC(=O)[C@H](Cc1c[nH]cn1)NC(=O)[C@H](CC(C)C)NC(=O)[C@H](CCC(=O)O)NC(=O)[C@H](C)NC(=O)[C@H](CO)NC(=O)[C@H](CC(C)C)NC(=O)[C@H](CCCNC(=N)N)NC(=O)CNC(=O)[C@H](CC(C)C)NC(=O)[C@@H](NC(=O)[C@H](C)NC(=O)[C@@H](NC(=O)[C@H](CO)NC(=O)[C@H](CC(C)C)NC(=O)[C@H](CCC(=O)O)NC(=O)[C@@H]1CCCN1C(=O)[C@H](C)NC(=O)[C@H](CCC(=O)O)NC(=O)CCCCCCCCCCCCCCCCC(=O)O)[C@@H](C)O)C(C)C)C(=O)N[C@@H](C)C(=O)N[C@H](C(=O)N[C@@H](CC(C)C)C(=O)N1CCC[C@H]1C(=O)N[C@@H](CCCNC(=N)N)C(=O)N[C@H](C(=O)N[C@@H](CCC(=O)O)C(=O)N[C@H](C(=O)NCC(=O)N1CCC[C@H]1C(=O)N[C@@H](CCC(=O)O)C(=O)N[C@@H](CO)C(=O)N1CCC[C@H]1C(N)=O)[C@@H](C)O)[C@@H](C)O)[C@@H](C)O
notes: also called Ex. #29
B1: the half-inhibitory concentration (IC50) is 0.309 nM.

B2: [N-terminal(C18 diacid), 5V, 9V]mimylin (peptide)
peptide: {C18 diacid}-EASEVSTAVLGRLSAELHELATLPRTETGPESP-NH2
SMILES: CC(C)C[C@H](NC(=O)[C@H](CCC(=O)O)NC(=O)[C@H](Cc1c[nH]cn1)NC(=O)[C@H](CC(C)C)NC(=O)[C@H](CCC(=O)O)NC(=O)[C@H](C)NC(=O)[C@H](CO)NC(=O)[C@H](CC(C)C)NC(=O)[C@H](CCCNC(=N)N)NC(=O)CNC(=O)[C@H](CC(C)C)NC(=O)[C@@H](NC(=O)[C@H](C)NC(=O)[C@@H](NC(=O)[C@H](CO)NC(=O)[C@@H](NC(=O)[C@H](CCC(=O)O)NC(=O)[C@H](CO)NC(=O)[C@H](C)NC(=O)[C@H](CCC(=O)O)NC(=O)CCCCCCCCCCCCCCCCC(=O)O)C(C)C)[C@@H](C)O)C(C)C)C(=O)N[C@@H](C)C(=O)N[C@H](C(=O)N[C@@H](CC(C)C)C(=O)N1CCC[C@H]1C(=O)N[C@@H](CCCNC(=N)N)C(=O)N[C@H](C(=O)N[C@@H](CCC(=O)O)C(=O)N[C@H](C(=O)NCC(=O)N1CCC[C@H]1C(=O)N[C@@H](CCC(=O)O)C(=O)N[C@@H](CO)C(=O)N1CCC[C@H]1C(N)=O)[C@@H](C)O)[C@@H](C)O)[C@@H](C)O
notes: also called Ex. #24
Turning to B2, the IC50 was determined as 0.749 nM.

B3: [N-terminal(C18 diacid), 5I, 9I]mimylin (peptide)
peptide: {C18 diacid}-EASEISTAILGRLSAELHELATLPRTETGPESP-NH2
SMILES: CC[C@H](C)[C@H](NC(=O)[C@H](C)NC(=O)[C@@H](NC(=O)[C@H](CO)NC(=O)[C@@H](NC(=O)[C@H](CCC(=O)O)NC(=O)[C@H](CO)NC(=O)[C@H](C)NC(=O)[C@H](CCC(=O)O)NC(=O)CCCCCCCCCCCCCCCCC(=O)O)[C@@H](C)CC)[C@@H](C)O)C(=O)N[C@@H](CC(C)C)C(=O)NCC(=O)N[C@@H](CCCNC(=N)N)C(=O)N[C@@H](CC(C)C)C(=O)N[C@@H](CO)C(=O)N[C@@H](C)C(=O)N[C@@H](CCC(=O)O)C(=O)N[C@@H](CC(C)C)C(=O)N[C@@H](Cc1c[nH]cn1)C(=O)N[C@@H](CCC(=O)O)C(=O)N[C@@H](CC(C)C)C(=O)N[C@@H](C)C(=O)N[C@H](C(=O)N[C@@H](CC(C)C)C(=O)N1CCC[C@H]1C(=O)N[C@@H](CCCNC(=N)N)C(=O)N[C@H](C(=O)N[C@@H](CCC(=O)O)C(=O)N[C@H](C(=O)NCC(=O)N1CCC[C@H]1C(=O)N[C@@H](CCC(=O)O)C(=O)N[C@@H](CO)C(=O)N1CCC[C@H]1C(N)=O)[C@@H](C)O)[C@@H](C)O)[C@@H](C)O
notes: also called Ex. #25
For the molecule B3, the half-maximal inhibitory concentration (IC50) was determined as 0.413 nM.

B4: [N-terminal(C18 diacid), 5H]mimylin (peptide)
peptide: {C18 diacid}-EASEHSTAALGRLSAELHELATLPRTETGPESP-NH2
SMILES: CC(C)C[C@H](NC(=O)[C@H](C)NC(=O)[C@H](C)NC(=O)[C@@H](NC(=O)[C@H](CO)NC(=O)[C@H](Cc1c[nH]cn1)NC(=O)[C@H](CCC(=O)O)NC(=O)[C@H](CO)NC(=O)[C@H](C)NC(=O)[C@H](CCC(=O)O)NC(=O)CCCCCCCCCCCCCCCCC(=O)O)[C@@H](C)O)C(=O)NCC(=O)N[C@@H](CCCNC(=N)N)C(=O)N[C@@H](CC(C)C)C(=O)N[C@@H](CO)C(=O)N[C@@H](C)C(=O)N[C@@H](CCC(=O)O)C(=O)N[C@@H](CC(C)C)C(=O)N[C@@H](Cc1c[nH]cn1)C(=O)N[C@@H](CCC(=O)O)C(=O)N[C@@H](CC(C)C)C(=O)N[C@@H](C)C(=O)N[C@H](C(=O)N[C@@H](CC(C)C)C(=O)N1CCC[C@H]1C(=O)N[C@@H](CCCNC(=N)N)C(=O)N[C@H](C(=O)N[C@@H](CCC(=O)O)C(=O)N[C@H](C(=O)NCC(=O)N1CCC[C@H]1C(=O)N[C@@H](CCC(=O)O)C(=O)N[C@@H](CO)C(=O)N1CCC[C@H]1C(N)=O)[C@@H](C)O)[C@@H](C)O)[C@@H](C)O
notes: also called Ex. #17
On to B4, for which the IC50 was 0.577 nM.

B5: [N-terminal(C18 diacid), 5I]mimylin (peptide)
peptide: {C18 diacid}-EASEISTAALGRLSAELHELATLPRTETGPESP-NH2
SMILES: CC[C@H](C)[C@H](NC(=O)[C@H](CCC(=O)O)NC(=O)[C@H](CO)NC(=O)[C@H](C)NC(=O)[C@H](CCC(=O)O)NC(=O)CCCCCCCCCCCCCCCCC(=O)O)C(=O)N[C@@H](CO)C(=O)N[C@H](C(=O)N[C@@H](C)C(=O)N[C@@H](C)C(=O)N[C@@H](CC(C)C)C(=O)NCC(=O)N[C@@H](CCCNC(=N)N)C(=O)N[C@@H](CC(C)C)C(=O)N[C@@H](CO)C(=O)N[C@@H](C)C(=O)N[C@@H](CCC(=O)O)C(=O)N[C@@H](CC(C)C)C(=O)N[C@@H](Cc1c[nH]cn1)C(=O)N[C@@H](CCC(=O)O)C(=O)N[C@@H](CC(C)C)C(=O)N[C@@H](C)C(=O)N[C@H](C(=O)N[C@@H](CC(C)C)C(=O)N1CCC[C@H]1C(=O)N[C@@H](CCCNC(=N)N)C(=O)N[C@H](C(=O)N[C@@H](CCC(=O)O)C(=O)N[C@H](C(=O)NCC(=O)N1CCC[C@H]1C(=O)N[C@@H](CCC(=O)O)C(=O)N[C@@H](CO)C(=O)N1CCC[C@H]1C(N)=O)[C@@H](C)O)[C@@H](C)O)[C@@H](C)O)[C@@H](C)O
notes: also called Ex. #8
In the case of B5, the IC50 stood at 0.368 nM.

B6: [N-terminal(C18 diacid), 5I, 9I, 10I, 20I]mimylin (peptide)
peptide: {C18 diacid}-EASEISTAIIGRLSAELHEIATLPRTETGPESP-NH2
SMILES: CC[C@H](C)[C@H](NC(=O)[C@H](C)NC(=O)[C@@H](NC(=O)[C@H](CO)NC(=O)[C@@H](NC(=O)[C@H](CCC(=O)O)NC(=O)[C@H](CO)NC(=O)[C@H](C)NC(=O)[C@H](CCC(=O)O)NC(=O)CCCCCCCCCCCCCCCCC(=O)O)[C@@H](C)CC)[C@@H](C)O)C(=O)N[C@H](C(=O)NCC(=O)N[C@@H](CCCNC(=N)N)C(=O)N[C@@H](CC(C)C)C(=O)N[C@@H](CO)C(=O)N[C@@H](C)C(=O)N[C@@H](CCC(=O)O)C(=O)N[C@@H](CC(C)C)C(=O)N[C@@H](Cc1c[nH]cn1)C(=O)N[C@@H](CCC(=O)O)C(=O)N[C@H](C(=O)N[C@@H](C)C(=O)N[C@H](C(=O)N[C@@H](CC(C)C)C(=O)N1CCC[C@H]1C(=O)N[C@@H](CCCNC(=N)N)C(=O)N[C@H](C(=O)N[C@@H](CCC(=O)O)C(=O)N[C@H](C(=O)NCC(=O)N1CCC[C@H]1C(=O)N[C@@H](CCC(=O)O)C(=O)N[C@@H](CO)C(=O)N1CCC[C@H]1C(N)=O)[C@@H](C)O)[C@@H](C)O)[C@@H](C)O)[C@@H](C)CC)[C@@H](C)CC
notes: also called Ex. #77
Turning to B6, the concentration for half-maximal inhibition (IC50) turned out to be 1.1 nM.

B7: [N-terminal(C18 diacid), 4P, 9V]mimylin (peptide)
peptide: {C18 diacid}-EASPLSTAVLGRLSAELHELATLPRTETGPESP-NH2
SMILES: CC(C)C[C@H](NC(=O)[C@H](CCC(=O)O)NC(=O)[C@H](Cc1c[nH]cn1)NC(=O)[C@H](CC(C)C)NC(=O)[C@H](CCC(=O)O)NC(=O)[C@H](C)NC(=O)[C@H](CO)NC(=O)[C@H](CC(C)C)NC(=O)[C@H](CCCNC(=N)N)NC(=O)CNC(=O)[C@H](CC(C)C)NC(=O)[C@@H](NC(=O)[C@H](C)NC(=O)[C@@H](NC(=O)[C@H](CO)NC(=O)[C@H](CC(C)C)NC(=O)[C@@H]1CCCN1C(=O)[C@H](CO)NC(=O)[C@H](C)NC(=O)[C@H](CCC(=O)O)NC(=O)CCCCCCCCCCCCCCCCC(=O)O)[C@@H](C)O)C(C)C)C(=O)N[C@@H](C)C(=O)N[C@H](C(=O)N[C@@H](CC(C)C)C(=O)N1CCC[C@H]1C(=O)N[C@@H](CCCNC(=N)N)C(=O)N[C@H](C(=O)N[C@@H](CCC(=O)O)C(=O)N[C@H](C(=O)NCC(=O)N1CCC[C@H]1C(=O)N[C@@H](CCC(=O)O)C(=O)N[C@@H](CO)C(=O)N1CCC[C@H]1C(N)=O)[C@@H](C)O)[C@@H](C)O)[C@@H](C)O
notes: also called Ex. #30
Turning to B7, the IC50 is 0.478 nM.
